Assay results reported in the supplement of paper PMC12042874.
± gives the uncertainty stated by the source.

Assay: amyloid nucleation score (Sup35N fusion, yeast selection) (log enrichment); library NNK2; higher = more nucleation; inactive = no reads after selection
Summary of the method: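 The nucleation score is a DiMSum log enrichment of output over input reads, centred on the mode score of non-aggregating sequences. Sequences under 100 input reads were excluded, and reads came from Illumina sequencing of plasmid inserts. Psi-negative yeast expressing Sup35N fused to peptides of 20 random codons were induced with 100 μM copper sulfate for 24 hours and grown 7 days at 30°C on medium lacking adenine and uracil. Random libraries had three technical output replicates.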

Substance | amyloid nucleation score
PICHLRGGSISRRSNFIQGC | -1.12 ± 0.76
PICLPVNMLVFKSMNSN | 2.28 ± 0.073
PIHNNKHGCFSSERSSFHKM | -1.6 ± 0.75
PISNAYCMGTNRSLRIGIRC | 0.641 ± 0.21
PISTSFYRMSILEYGSR | -0.529 ± 0.64
PITCMLQ | 0.398 ± 0.35
PKPTYTP | 0.292 ± 0.38
PKVVPMISRIAVPL | -0.788 ± 0.76
PKWIPYSRRWPWAYIF | -1.2 ± 0.48
PLCRRLVLLFRIFYNSRN | -1.46 ± 1.1
PLRVRNNGGTVDKFLLRVFE | 0.489 ± 0.4
PLSGWYQYIRDGVLSVWLSV | 0.713 ± 0.74
PLVLSFFRAIYSYYCNWKTC | -0.649 ± 0.64
PLYSPRVCFFGYAPKVCITH | -0.724 ± 0.4
PMCISLHVTTKGAMFNRGCF | 7.18 ± 0.057
PMFVSLVKFTYWSCTVFLGA | -0.582 ± 0.38
PMFYGCGPKLCDYYMNVLFV | 2.85 ± 0.12
PMICEHAGHSGWH | 1.11 ± 0.22
PMSFTLNRRQRRLHMLRTNN | 0.854 ± 0.43
PNERFVSTLWCRDVCDPWSW | 0.798 ± 0.51
PNRKSYLAYNMDSPT | -0.32 ± 0.24
PNSRGLSQVNLSFVENRRWS | 3.84 ± 0.044

Substance | amyloid nucleation score
PPRYARFKSDLHSLHAVFGN | 5.57 ± 0.061
PQNSIPCFAIFTWAWSMKKL | inactive
PRDNSQVLILLNW | 5.424 ± 0.041
PREFGRLL | -0.757 ± 0.35
PRFAYCSSIANKMMGVG | 2.36 ± 0.18
PRLPTQTITK | 1.53 ± 0.16
PRMSTMTTKCGKLKNGKYRR | 0.549 ± 0.51
PRPRWRYCFACRLAVFGTVG | 6.83 ± 0.036
PRSGSYYTFF | -0.672 ± 1.1
PRSGVSAKQSCAWNVRDGDR | 0.566 ± 0.39
PSFMLHTCLFSHGYYILCTG | 0.005 ± 0.3
PSFSFVMTLVNFRPDFLSMH | -1.2 ± 0.78
PSFTLMDVFRI | 0.701 ± 0.26
PSHSRMRIMNSTYSSFLLKV | 0.214 ± 0.18
PSNLKFKYSCFLLNKCMGVR | 0.153 ± 0.43
PSSYGWCMLFLVWDIQSTL | -0.829 ± 1
PSYFRNRIRLSRVGTNGYTR | -0.693 ± 1.1
PSYMACSA | -0.187 ± 0.56
PTRCRVSYKRLRCSQLSLQL | -0.012 ± 0.79
PTRVKIFFQRMCGVVAVGWS | 1.42 ± 0.39
PTSDALLKCSAPFCSVRPVP | 0.138 ± 0.76
PVCFGIEVYDVRFVASNVPG | 0.313 ± 0.48

Substance | amyloid nucleation score
PVCWAAFRYTYKARMKRWSK | 5.06 ± 0.055
PVFCTLYHAAWSHRIRISVF | -1.57 ± 0.54
PVFRFTSGPLDKNCVYRVN | 0.564 ± 0.57
PVGEEVADVMLTFYKHHLVD | -0.913 ± 1.1
PVIFGTR | 0.192 ± 1
PVLDGHCSWGGLSTAEETDR | 0.29 ± 0.29
PVWGSTCWFDVTWVRFKLFW | 2.61 ± 0.11
PWCGRSMYSVSGKGQMWMRA | 1.03 ± 0.4
PWFKTFWSNMWAVTGW | -0.436 ± 1.1
PWHTSFALERKDMGHK | -0.094 ± 0.36
PWRRISMVVSWQYIEFIKYL | -0.832 ± 0.78
PWVSILLVPMYQRHLTPHPE | -0.121 ± 1.1
PYLFMESMKD | 0.117 ± 0.79
PYRPHYAAVLRLAR | 0.08 ± 0.33
PYSTTNGHSGVWLRWLKGPC | 0.569 ± 0.27
PYWYYVFCS | -0.689 ± 0.49
PYYTIVMFAFYGLLTVRMGI | 0.706 ± 0.4
QAHATFSILRTISAVFSPMQ | 5.973 ± 0.057
QAISVEVVGYRSNLESFTIW | 1.71 ± 0.11
QAWYRLVCIASYLFYEGFNV | 0.193 ± 0.13
QCLIDWSFTFLLNVVLDYFY | inactive
QCWLGTGFLRVLACAVAFLY | inactive

Substance | amyloid nucleation score
QDCKAISSCLFRLLPELSLR | -0.92 ± 1.1
QDDGM | -0.826 ± 0.41
QDNFQFFAVSMRGCDCTGVS | 6.96 ± 0.048
QDPFQIRLLVVLNFDNLYLW | 2.08 ± 0.1
QEAALG | 1.27 ± 0.35
QFCSDCV | -0.9 ± 0.76
QFRAWWFTSVDRTPSDNHTV | 4.99 ± 0.059
QFVGFVRWFVWEWGLLVID | 0.706 ± 0.81
QFVSDALVWGGITSMGWLMR | 0.756 ± 0.4
QGAVLTL | -1.12 ± 0.76
QGLMIVINGSSYYVYVCLKG | 1.09 ± 0.12
QGSNCLHYRLSIIS | -1.05 ± 1.1
QHFDLVATGMGYSWAMLYFA | 0.776 ± 0.43
QHSLAMSSHKLSTTVEESWP | 0.818 ± 0.45
QIIRPCVRRDKTGFIALVMG | 1.27 ± 0.49
QILSRGFAPWT | -1.54 ± 0.78
QIPVELNNVLNLYLVLCRIE | -0.459 ± 1.1
QIQVYMNALLTRLSSIILIF | -0.93 ± 0.55
QIVIWVRLYFNVFSRSRSRV | 1.05 ± 0.36
QKMLLKIWIVDRNTYSAVLN | -0.425 ± 0.74
